The results in this text go back to US7658917 (PRAECIS PHARMACEUTICALS, dated 2010).

Numbered stars: 1 amine (or outer) side, 2 acyl side, 3 side chain; on linkers, the order of the positions; unused ones are H or OH. Square brackets hold non-standard residues; d marks the D form. Primed or numbered codes have the meaning given here. * marks the point of attachment. Cholyl = C[C@H](CCC(=O)*)[C@H]1CC[C@H]2[C@@H]3[C@H](O)C[C@@H]4C[C@H](O)CC[C@]4(C)[C@H]3C[C@H](O)[C@]12C; Adp = aminoethyldibenzofuranylpropanoic acid, O=C(CCc1cccc2c1oc1c(CCN[*:1])cccc12)[*:2]; Tyr(3-I) = N[C@@H](Cc1ccc(O)c(I)c1)C(=O)O; Aic″ = 3-(O-aminoethyl-iso)-cholyl; NANA = N-acetyl neuraminyl; βAla = NCCC(=O)O

Sequences and labels used below:
B1: h-DDIIL-(Adp)-VFF-oh (peptide)
peptide: H-DDIIL[Adp]VFF-OH
SMILES: CC[C@H](C)[C@H](NC(=O)[C@H](CC(=O)O)NC(=O)[C@@H](N)CC(=O)O)C(=O)N[C@H](C(=O)N[C@@H](CC(C)C)C(=O)NCCc1cccc2c1oc1c(CCC(=O)N[C@H](C(=O)N[C@@H](Cc3ccccc3)C(=O)N[C@@H](Cc3ccccc3)C(=O)O)C(C)C)cccc12)[C@@H](C)CC
B2: CA-LVFFAE-oh (peptide)
peptide: Cholyl-LVFFAE-OH
SMILES: CC(C)C[C@H](NC(=O)CC[C@@H](C)[C@H]1CC[C@H]2[C@@H]3[C@H](O)C[C@@H]4C[C@H](O)CC[C@]4(C)[C@H]3C[C@H](O)[C@]12C)C(=O)N[C@H](C(=O)N[C@@H](Cc1ccccc1)C(=O)N[C@@H](Cc1ccccc1)C(=O)N[C@@H](C)C(=O)N[C@@H](CCC(=O)O)C(=O)O)C(C)C
B3: CA-LVAFA-oh (peptide)
peptide: Cholyl-LVAFA-OH
SMILES: CC(C)C[C@H](NC(=O)CC[C@@H](C)[C@H]1CC[C@H]2[C@@H]3[C@H](O)C[C@@H]4C[C@H](O)CC[C@]4(C)[C@H]3C[C@H](O)[C@]12C)C(=O)N[C@H](C(=O)N[C@@H](C)C(=O)N[C@@H](Cc1ccccc1)C(=O)N[C@@H](C)C(=O)O)C(C)C
B4: CA-KTVFF-oh (peptide)
peptide: Cholyl-KTVFF-OH
SMILES: CC(C)[C@H](NC(=O)[C@@H](NC(=O)[C@H](CCCCN)NC(=O)CC[C@@H](C)[C@H]1CC[C@H]2[C@@H]3[C@H](O)C[C@@H]4C[C@H](O)CC[C@]4(C)[C@H]3C[C@H](O)[C@]12C)[C@@H](C)O)C(=O)N[C@@H](Cc1ccccc1)C(=O)N[C@@H](Cc1ccccc1)C(=O)O
B5: CA-VFFA-oh (peptide)
peptide: Cholyl-VFFA-OH
SMILES: CC(C)[C@H](NC(=O)CC[C@@H](C)[C@H]1CC[C@H]2[C@@H]3[C@H](O)C[C@@H]4C[C@H](O)CC[C@]4(C)[C@H]3C[C@H](O)[C@]12C)C(=O)N[C@@H](Cc1ccccc1)C(=O)N[C@@H](Cc1ccccc1)C(=O)N[C@@H](C)C(=O)O
B6: CA-LVF-oh (peptide)
peptide: Cholyl-Leu-Val-Phe-OH
SMILES: CC(C)C[C@H](NC(=O)CC[C@@H](C)[C@H]1CC[C@H]2[C@@H]3[C@H](O)C[C@@H]4C[C@H](O)CC[C@]4(C)[C@H]3C[C@H](O)[C@]12C)C(=O)N[C@H](C(=O)N[C@@H](Cc1ccccc1)C(=O)O)C(C)C
B7: CA-KLVFF(βA)-oh (peptide)
peptide: Cholyl-KLVFF[βAla]-OH
SMILES: CC(C)C[C@H](NC(=O)[C@H](CCCCN)NC(=O)CC[C@@H](C)[C@H]1CC[C@H]2[C@@H]3[C@H](O)C[C@@H]4C[C@H](O)CC[C@]4(C)[C@H]3C[C@H](O)[C@]12C)C(=O)N[C@H](C(=O)N[C@@H](Cc1ccccc1)C(=O)N[C@@H](Cc1ccccc1)C(=O)NCCC(=O)O)C(C)C
B8: CA-LAFFA-oh (peptide)
peptide: Cholyl-LAFFA-OH
SMILES: CC(C)C[C@H](NC(=O)CC[C@@H](C)[C@H]1CC[C@H]2[C@@H]3[C@H](O)C[C@@H]4C[C@H](O)CC[C@]4(C)[C@H]3C[C@H](O)[C@]12C)C(=O)N[C@@H](C)C(=O)N[C@@H](Cc1ccccc1)C(=O)N[C@@H](Cc1ccccc1)C(=O)N[C@@H](C)C(=O)O
B9: CA-FFA-oh (peptide)
peptide: Cholyl-Phe-Phe-Ala-OH
SMILES: C[C@H](NC(=O)[C@H](Cc1ccccc1)NC(=O)[C@H](Cc1ccccc1)NC(=O)CC[C@@H](C)[C@H]1CC[C@H]2[C@@H]3[C@H](O)C[C@@H]4C[C@H](O)CC[C@]4(C)[C@H]3C[C@H](O)[C@]12C)C(=O)O
B10: CA-AVFFA-oh (peptide)
peptide: Cholyl-AVFFA-OH
SMILES: CC(C)[C@H](NC(=O)[C@H](C)NC(=O)CC[C@@H](C)[C@H]1CC[C@H]2[C@@H]3[C@H](O)C[C@@H]4C[C@H](O)CC[C@]4(C)[C@H]3C[C@H](O)[C@]12C)C(=O)N[C@@H](Cc1ccccc1)C(=O)N[C@@H](Cc1ccccc1)C(=O)N[C@@H](C)C(=O)O
B11: CA-VFF-oh (peptide)
peptide: Cholyl-Val-Phe-Phe-OH
SMILES: CC(C)[C@H](NC(=O)CC[C@@H](C)[C@H]1CC[C@H]2[C@@H]3[C@H](O)C[C@@H]4C[C@H](O)CC[C@]4(C)[C@H]3C[C@H](O)[C@]12C)C(=O)N[C@@H](Cc1ccccc1)C(=O)N[C@@H](Cc1ccccc1)C(=O)O
B12: CA-FKFVL-oh (peptide)
peptide: Cholyl-FKFVL-OH
SMILES: CC(C)C[C@H](NC(=O)[C@@H](NC(=O)[C@H](Cc1ccccc1)NC(=O)[C@H](CCCCN)NC(=O)[C@H](Cc1ccccc1)NC(=O)CC[C@@H](C)[C@H]1CC[C@H]2[C@@H]3[C@H](O)C[C@@H]4C[C@H](O)CC[C@]4(C)[C@H]3C[C@H](O)[C@]12C)C(C)C)C(=O)O
B13: CA-LVFFK-oh (peptide)
peptide: Cholyl-LVFFK-OH
SMILES: CC(C)C[C@H](NC(=O)CC[C@@H](C)[C@H]1CC[C@H]2[C@@H]3[C@H](O)C[C@@H]4C[C@H](O)CC[C@]4(C)[C@H]3C[C@H](O)[C@]12C)C(=O)N[C@H](C(=O)N[C@@H](Cc1ccccc1)C(=O)N[C@@H](Cc1ccccc1)C(=O)N[C@@H](CCCCN)C(=O)O)C(C)C

natural β-amyloid peptide β-AP1-40 (human), sequence (peptide, as listed by the source): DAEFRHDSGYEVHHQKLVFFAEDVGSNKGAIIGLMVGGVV

The test has as its target natural β-amyloid peptide β-AP1-40 (human). The test can be described thus: cell-based or functional assay.
Take B1: the “% Iext'n; seeded extension assay; 25 mole %” value (from here on “% Iext'n”) stood at 0%, the “% Inucl'n; nucleation assay; 100 mole %” value turned out to be 14% and the “ΔLag; nucleation assay; 100 mole %” value is 0.4 ratio.
In the case of B2, the “% Iext'n” value was determined as 16%, the “% Inucl'n; nucleation assay; 100 mole %” value stood at 55% and the “ΔLag; nucleation assay; 100 mole %” value turned out to be 1.4 ratio.
With Cholyl-LVFFA-NH2 [CA-LVFFA-nh2], the “% Iext'n” value came out at 91%, the “% Inucl'n; nucleation assay; 100 mole %” value was -200% and the “ΔLag; nucleation assay; 100 mole %” value stood at 1 ratio.
As for H-LVFFA-NH2 [h-LVFFA-nh2], the “% Iext'n” value is 70%, the “% Inucl'n; nucleation assay; 100 mole %” value worked out at 11% and the “ΔLag; nucleation assay; 100 mole %” value is 1.3 ratio.
As to B3, the “% Iext'n” value was 0%, the “% Inucl'n; nucleation assay; 100 mole %” value was 25% and the “ΔLag; nucleation assay; 100 mole %” value was 2.7 ratio.
On the same counts, the results for H-LVFFA[Aic″]-OH [h-LVFFA-(Aic)-oh] are 3%, 46% and 3.5 ratio.
On the same counts, the results for B4 are 21%, 18% and 1.2 ratio.
Consider B5, for which the “% Iext'n” value worked out at 10%, the “% Inucl'n; nucleation assay; 100 mole %” value came out at 76% and the “ΔLag; nucleation assay; 100 mole %” value turned out to be 2 ratio.
On the same counts, the results for B6 are 0%, 1% and 1.3 ratio.
Consider B7, for which the “% Iext'n” value turned out to be 80%, the “% Inucl'n; nucleation assay; 100 mole %” value came out at 76% and the “ΔLag; nucleation assay; 100 mole %” value turned out to be 2.5 ratio.
Taken in the same sequence, the figures for B8 were 66%, 47% and 1.5 ratio.
On the same counts, the results for H-LVFFA-OH [h-LVFFA-oh] are 11%, 15% and 1 ratio.
On the same counts, the results for B9 are 6%, 51% and 1 ratio.
Take B10: the “% Iext'n” value stood at 44%, the “% Inucl'n; nucleation assay; 100 mole %” value worked out at 68% and the “ΔLag; nucleation assay; 100 mole %” value stood at 1.4 ratio.
Cholyl-LVFF-OH [CA-LVFF-oh]: the “% Iext'n” value is 51%, the “% Inucl'n; nucleation assay; 33 mole %” value worked out at 72% and the “ΔLag; nucleation assay; 33 mole %” value came out at 1.8 ratio.
On to B11, for which the “% Iext'n” value turned out to be 0%, the “% Inucl'n; nucleation assay; 100 mole %” value is 55% and the “ΔLag; nucleation assay; 100 mole %” value worked out at 1.8 ratio.
Taken in the same sequence, the figures for {NANA}-KLVFF-OH [NANA-KLVFF-oh] were 8%, 16% and 0.9 ratio.
Take H-KLVFF-NH2 [h-KLVFF-nh2]: the “% Iext'n” value turned out to be 39%, the “% Inucl'n; nucleation assay; 100 mole %” value was -9% and the “ΔLag; nucleation assay; 100 mole %” value came out at 1.3 ratio.
In the case of Cholyl-LVFFA-OMe [CA-LVFFA-o-methyl], the “% Iext'n” value was 0%.
Regarding B12, the “% Iext'n” value was found to be 37%, the “% Inucl'n; nucleation assay; 100 mole %” value amounted to 45% and the “ΔLag; nucleation assay; 100 mole %” value worked out at 0.8 ratio.
As for B13, the “% Iext'n” value worked out at 85%, the “% Inucl'n; nucleation assay; 33 mole %” value was 100% and the “ΔLag; nucleation assay; 33 mole %” value is greater than 5 ratio.
Take {NANA}-HQKLVFF-NH2 [NANA-HQKLVFF-nh2]: the “% Inucl'n; nucleation assay; 100 mole %” value is -15% and the “ΔLag; nucleation assay; 100 mole %” value is 1.5 ratio.
As to Cholyl-HQKLVFF-NH2 [CA-HQKLVFF-nh2], the “% Inucl'n; nucleation assay; 33 mole %” value stood at 5% and the “ΔLag; nucleation assay; 33 mole %” value stood at 1.1 ratio.
For Cholyl-LV[Tyr(3-I)]FA-OH [CA-LV(IY)FA-oh], the “% Iext'n” value is 71%, the “% Inucl'n; nucleation assay; 100 mole %” value was 100% and the “ΔLag; nucleation assay; 100 mole %” value was greater than 5 ratio.
